T1: EsCas13d, nuclease-dead (Eubacterium siraeum, UniProt B0MS50, R295A;H300A;R849A;H854A)
T1 sequence: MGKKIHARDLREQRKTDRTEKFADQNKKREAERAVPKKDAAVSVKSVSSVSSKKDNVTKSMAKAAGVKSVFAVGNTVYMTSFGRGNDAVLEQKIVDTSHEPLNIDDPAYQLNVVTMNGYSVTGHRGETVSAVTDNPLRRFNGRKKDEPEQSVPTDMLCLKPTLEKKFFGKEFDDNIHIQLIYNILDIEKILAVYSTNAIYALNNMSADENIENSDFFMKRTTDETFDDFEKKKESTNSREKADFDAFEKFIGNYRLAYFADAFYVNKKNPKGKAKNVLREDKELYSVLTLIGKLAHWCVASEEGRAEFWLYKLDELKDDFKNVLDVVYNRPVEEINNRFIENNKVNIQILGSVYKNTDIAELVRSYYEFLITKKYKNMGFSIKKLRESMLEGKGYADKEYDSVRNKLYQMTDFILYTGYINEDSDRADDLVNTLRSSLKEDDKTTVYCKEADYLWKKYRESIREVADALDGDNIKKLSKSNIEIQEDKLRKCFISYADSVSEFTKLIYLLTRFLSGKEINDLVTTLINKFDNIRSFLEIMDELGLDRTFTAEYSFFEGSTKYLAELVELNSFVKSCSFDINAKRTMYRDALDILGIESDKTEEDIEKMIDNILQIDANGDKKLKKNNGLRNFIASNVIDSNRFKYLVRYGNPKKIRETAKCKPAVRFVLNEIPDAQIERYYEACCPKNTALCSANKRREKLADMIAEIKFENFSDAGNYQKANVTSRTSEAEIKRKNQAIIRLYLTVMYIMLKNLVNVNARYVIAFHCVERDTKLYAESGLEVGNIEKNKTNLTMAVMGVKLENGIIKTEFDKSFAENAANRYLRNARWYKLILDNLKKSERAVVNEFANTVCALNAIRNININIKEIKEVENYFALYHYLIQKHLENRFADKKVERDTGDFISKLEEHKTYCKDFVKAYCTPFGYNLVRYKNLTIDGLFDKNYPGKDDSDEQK

B1: target 1 C6G,A14C (mixed)
RNA 1: CACCCGUGCAAAAAUGCAGGGGUCUAAAACUGAGCGGAUAACCUCUCUAUGG
RNA 2: GGGAAUGGAUCCACAUCUACGAAUUCGUACCAUAGAGCGGUUAUCGGCUCACCGAGAUCGGAAGAGCACACGU
B2: target 1 insU 3' of 17,insA 3' of 11 (mixed)
RNA 1: B1 RNA 1
RNA 2: GGGAAUGGAUCCACAUCUACGAAUUCGUACCAUAGUAGAGGUAUAUCCGCUCACCGAGAUCGGAAGAGCACACGU
B3: target 1 insA 3' of 13,insG 3' of 10 (mixed)
RNA 1: B1 RNA 1
RNA 2: B2 RNA 2 with U36A, A37G, G38A, A39G, G40A, A43U, U44G
B4: target 1 insA 3' of 21,insG 3' of 1 (mixed)
RNA 1: B1 RNA 1
RNA 2: GGGAAUGGAUCCACAUCUACGAAUUCGUACCAAUAGAGAGGUUAUCCGCUCAGCCGAGAUCGGAAGAGCACACGU
B5: target 1 insA 3' of 17,insC 3' of 5 (mixed)
RNA 1: B1 RNA 1
RNA 2: B2 RNA 2 with U36A, A43U, U44A, A45U, U46C, C48G, G49C
B6: target 1 complement block 7-11 (mixed)
RNA 1: B1 RNA 1
RNA 2: B1 RNA 2 with C38A, U41A, U42A, A43U, U44A, C45G, G46C
B7: target 1 insC 3' of 12,insA 3' of 7 (mixed)
RNA 1: B1 RNA 1
RNA 2: GGGAAUGGAUCCACAUCUACGAAUUCGUACCAUAGAGAGGCUUAUCACGCUCACCGAGAUCGGAAGAGCACACGU
B8: target 1 A1G,U10A (mixed)
RNA 1: B1 RNA 1
RNA 2: B1 RNA 2 with C38A, U42A, G46C, A51G
B9: target 1 U10C,U11G (mixed)
RNA 1: B1 RNA 1
RNA 2: B1 RNA 2 with C38A, U41G, U42C, G46C
B10: target 1 insG 3' of 16,insG 3' of 8 (mixed)
RNA 1: B1 RNA 1
RNA 2: B7 RNA 2 with A38G, G39A, C41G, C46G, A47C
B11: target 1 A1C,U10A (mixed)
RNA 1: B1 RNA 1
RNA 2: B1 RNA 2 with C38A, U42A, G46C, A51C
B12: target 1 U10A (mixed)
RNA 1: B1 RNA 1
RNA 2: B1 RNA 2 with C38A, U42A, G46C
B13: target 1 insG 3' of 7,insU 3' of 6 (mixed)
RNA 1: B1 RNA 1
RNA 2: B7 RNA 2 with C41U, U43A, A44U, U45C, C46G, A47C, C48U
B14: target 1 insC 3' of 5,insC 3' of 3 (mixed)
RNA 1: B1 RNA 1
RNA 2: B7 RNA 2 with C41U, U43A, A44U, U45C, A47G, G49C, C50U, U51C
B15: target 1 C2G,A20U (mixed)
RNA 1: B1 RNA 1
RNA 2: B1 RNA 2 with A32U, C38A, G46C, C50G

Kd data for 15 molecules are collected here from article PMC10786891, “Massively parallel profiling of RNA-targeting CRISPR-Cas13d”.

Residue numbers refer to the chain shown, from its start. In names and notes the source's numbering stands.

This data set has as its target T1, EsCas13d, nuclease-dead. The experiment in a line: crRNA (strand 1, pre-loaded); Mg2+; 40 mM Tris-HCl pH 7.5, 150 mM NaCl, 6 mM MgCl2, 1 mM DTT, 0.1% Tween-20, 0.2 mg/ml BSA; 25 C; 10 min per concentration, then washed. The note with it: tags: His6-TwinStrep-SUMO cleaved; N-terminal SNAP kept (SNAP-Surface 488); label: 3' end held by stalled T7 RNA polymerase.
One may read the Kd as the free concentration of one partner at which half of the binding sites on the other are occupied at equilibrium, for simple one-to-one binding. B1 yielded an equilibrium dissociation constant (Kd) of 13.4 ± 0.4 nM.
As to B2, the Kd worked out at 28 ± 7 nM.
As to B3, binding was characterised by a dissociation constant (Kd) of 7.2 ± 0.5 nM.
In turn, B4 gave a Kd of 15.5 ± 0.8 nM.
B5 displayed a dissociation constant Kd of 32.2 ± 2.7 nM.
The molecule B6 showed a Kd of 13.3 ± 0.6 nM.
In the case of B7, the affinity, expressed as Kd, was 12.7 ± 0.5 nM.
B8 registered a dissociation constant (Kd) of 8.5 ± 0.6 nM.
On to B9, for which the Kd stood at 29.2 ± 2.6 nM.
For the molecule B10, the affinity, expressed as Kd, was 23.1 ± 1.9 nM.
B11 showed a Kd of 26.2 ± 2.2 nM.
B12: the Kd worked out at 9.3 ± 0.6 nM.
B13 had a dissociation constant (Kd) of 8.24 ± 0.34 nM.
Under B14 stands 22.3 ± 1.8 nM.
Take B15: the affinity, expressed as Kd, was 39 ± 7 nM.
